Assays:
[1] = target: RRR-type mutant ZFA36-ND1 (ZFA36 zinc finger array, TGAAARA linker, ND1 D489R/N543R) (Bacillus SGD-V-76); assay: cell-based or functional assay
[2] = target: RRR-type mutant ZFA36-FokI-ND (ZFA36 zinc finger array, TGAAARA linker, FokI nuclease domain D483R/H537R) (UniProt P14870); assay: cell-based or functional assay
Chain of RRR-type mutant ZFA36-FokI-ND (ZFA36 zinc finger array, TGAAARA linker, FokI nuclease domain D483R/H537R) (P14870 other isoform, or with tags, fused parts or gaps D483R H537R D483R H537R): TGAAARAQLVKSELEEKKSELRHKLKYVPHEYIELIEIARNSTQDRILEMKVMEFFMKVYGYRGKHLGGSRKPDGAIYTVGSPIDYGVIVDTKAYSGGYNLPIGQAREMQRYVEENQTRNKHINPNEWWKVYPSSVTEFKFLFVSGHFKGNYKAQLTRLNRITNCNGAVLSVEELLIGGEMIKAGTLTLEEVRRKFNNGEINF

Substance: DDD-type mutant ZFL1-FokI-ND (hPGRN_ZFL1 zinc finger array, TGAAARA linker, FokI nuclease domain R487D/N496D) (from UniProt P14870 384-579) (enzyme)
- cleavage activity of the reporter, SSA reporter assay, relative to the FokI-ND homodimer type [1]: 60%
- cleavage activity of the target sequence (ZFL1-ZFA36) on the reporter, SSA reporter assay, relative to ZFA36-FokI [2]: 60%

Substance: DDD-type mutant ZFL1-ND1 (hPGRN_ZFL1 zinc finger array, TGAAARA linker, ND1 R493D/N502D) (enzyme)
- cleavage activity of the target sequence (ZFL1-ZFA36) on the reporter, SSA reporter assay, relative to ZFA36-FokI [1]: 1.6 times
- cleavage activity of the reporter, SSA reporter assay [2]: 80%

Source: US20210332339A1
